Residue numbers refer to the chain shown, from its start. In names and notes the source's numbering stands.
B1: Cp149-C61S (Cp149 with C61 mutated to serine) (domain or fragment, hepatitis B virus, UniProt P03147 1-149, looked up)
chain: MDIDPYKEFGATVELLSFLPSDFFPSVRDLLDTAAALYRDALESPEHCSPHHTALRQAILSWGDLMTLATWVGTNLEDPASRDLVVSYVNTNVGLKFRQLLWFHISCLTFGRETVLEYLVSFGVWIRTPPAYRPPNAPILSTLPETTVV
B2: Cp149re-red (partially re-reduced Cp149ox) (domain or fragment, hepatitis B virus, UniProt P03147 1-149, looked up)
chain: B1 chain with S61C
modifications: intradimer C61–C61 disulfide in most dimers (only ∼20% of Cp149ox could be reduced)
B3: Cp149red (reduced HBV core protein assembly domain, amino acids 1–149, homodimer) (domain or fragment, hepatitis B virus, UniProt P03147 1-149, looked up)
chain: B1 chain with S61C
B4: Cp149ox (fully oxidized Cp149 dimer with the intradimer C61–C61 disulfide) (domain or fragment, hepatitis B virus, UniProt P03147 1-149, looked up)
chain: B1 chain with S61C
modifications: intradimer C61–C61 disulfide (fully oxidized)

Columns and labels:
SEC [1] = biological target: the molecule itself; assay: SEC
light scattering = biological target: the molecule itself; assay: light scattering
SEC [2] = biological target: the molecule itself; assay: SEC; remark: listed apart in the source

Protein	pseudocritical concentration (SEC [1]) [µM]	amount of capsid relative to Cp149red (light scattering) [%]	fold slower elongation rate constant than Cp149red (light scattering) [fold]	Kd (SEC [2]) [µM]
B1	5.9			
B2	6.5			
B3	4.7			
B4		~40	1.7	4 ± 0.2
